In patent US12458818B2, “Anti-trophoblast cell surface antigen 2 (TROP2) antibodies and antibody drug conjugates comprising same” (CSPC MEGALITH BIOPHARMACEUTICAL CO., LTD., priority 2019, dated 2025):
Where “and” joins values, the source holds several entries; their conditions need not be identical. Equal entries are not always repeated.

Legend:
Type in all cases: in vivo, mouse
[1] = test system: xenografted MDA-MB-468 human breast adenocarcinoma tumors; test: MDA-MB-468 xenograft efficacy in female nude mice (Example 4); details: for Number of mice demonstrating full tumor regression at Week 7 following first dose / Number of mice demonstrating full tumor regression at Week 8 following first dose / Number of mice demonstrating full tumor regression at Week 9 following first dose / Number of mice demonstrating full tumor regression at Week 10 following first dose / Number of mice demonstrating full tumor regression at Week 11 following first dose / Number of mice demonstrating full tumor regression at Week 12 following first dose / Number of mice demonstrating full tumor regression at Week 4 following first dose / Number of mice demonstrating full tumor regression at Week 5 following first dose / Number of mice demonstrating full tumor regression at Week 6 following first dose: n = 6 unless specified; for Tumor Weight (g, Mean ± SEM) Day 77: animal euthanized Day 77
Experimental: The anti-tumor activity of DP002-HC4LC5-ADC was evaluated as a single agent in female nude mice bearing xenografted MDA-MB-468 human breast adenocarcinoma tumors.
Each mouse was inoculated with 5×10^6 MDA-MB-468 tumor cells (in 0.1 mL, 1:1 with Matrigel) at the right flank by subcutaneous administration under sterile conditions. When the tumors reached a volume of ˜150 mm^3, mice were randomized into one of 7 treatment groups (6 mice per group), as outlined in Table 12, and treatments began. All doses of DP002-HC4LC5-ADC were administered by intravenous injection via tail vein injection.
Tumor size and animal body weight were measured twice per week. Clinical signs were recorded daily. Tumors were measured using a caliper in two dimensions (i.e., length (a) and width (b)), and tumor volumes were estimated from measurements of the two diameters of the individual tumors as follows: Tumor Volume (mm^3)=(a×b^2)/2.
Average tumor growth curves for each treatment group were plotted with the observation time on the X-axis, and corresponding tumor volume (geometric mean) on the Y-axis. A two-tailed t-test was used to analyze the statistical significance of any differences between the treatment groups and the control group. Tumor Growth Inhibition (TGI) was calculated after each tumor volume measurement according to the formula: % TGI=(TVcn−TVtn)/TVcn×100, where TVtn and TVcn are the mean tumor Volume of treated and control groups, respectively. Body weight change (CBW %) was calculated after each body weight measurement according to the formula: CBW %=(BWn−BW0)/BW0×100, where BWn is the body weight at day n and BW0 is the body weight at day 0 respectively.

[2] = Side effects in xenografted NOD/SCID mice (Example 3); details: 1 mg/kg or 4 mg/kg intravenous, single dose on Day 0
Experimental: (§1) The efficacies of two anti-TROP2-MMAE antibody drug conjugates, DP002-HC1LC5-ADC (DAR ˜2) and DP002-HC4LC5-ADC (DAR ˜1.6-2.3), in inhibiting tumor growth in mice bearing human MDA-MB-468 breast adenocarcinoma tumor xenografts were tested. DP002-HC1LC5-ADC comprises an anti-TROP antibody that comprises HC 1 (SEQ ID NO: 52) and LC5 (SEQ ID NO: 62); DP002-HC4LC5-ADC comprises an anti-TROP antibody that comprises HC 4 (SEQ ID NO: 44) and LC5 (SEQ ID NO: 62). Briefly, 48 NOD/SCID mice (female, 6-8 weeks of age) were implanted with 0.1 ml MDA-MB-468 cells (lx 10^7 cell/ml). When the tumors sizes reached above 181 mm^3 (34 days after tumor inoculation), the mice were sorted randomly into 7 groups (6 mice/group) and treated according to the schedule provided in Table 10 below: […]

[3] = test system: human MDA-MB-468 breast adenocarcinoma tumor xenografts; test: MDA-MB-468 xenograft efficacy in NOD/SCID mice (Example 3); details: single dose on Day 0; for T/C (%) / TGI (%): Day 42
Experimental: as §1

[4] = 2 mg/kg IV Day 0 + 1 mg/kg IV Days 7, 14
[5] = 4 mg/kg IV once on Day 0, outlier animal excluded

B1: DP002-HC4LC5-ADC: anti-TROP2-MMAE antibody drug conjugate (DAR ~1.6-2.3) of antibody with HC4 and LC5 (SEQ ID NO: 62) (conjugate)
VH: EVQLVQSGAEVKKPGESLKISCKGSGYTFTDYSINWVRQMPGKGLEWMGVISTYYGDASYNQKFKGQVTISADKSISTAYLQWSSLKASDTAMYYCARYGDGYNQFDYWGQGTLVTVSS
light: DIQMTQSPSSLSASVGDRVTITCRVSESVDSYGNNFMHWYQQKPGKAPKLLIYRASNLESGVPSRFSGSGSGTDFTFTISSLQPEDIATYYCQQSYEDPYTFGGGTKLEIKRTVAAPSVFIFPPSDEQLKSGTASVVCLLNNFYPREAKVQWKVDNALQSGNSQESVTEQDSKDSTYSLSSTLTLSKADYEKHKVYACEVTHQGLSSPVTKSFNRGEC
modifications: MMAE conjugate
- Number of mice demonstrating full tumor regression at Week 7 following first dose ([1]; 1 mg/kg IV once on Day 0): 0
- Number of mice demonstrating full tumor regression at Week 8 following first dose ([1]; 1 mg/kg IV once on Day 0): 0
- Number of mice demonstrating full tumor regression at Week 9 following first dose ([1]; 1 mg/kg IV once on Day 0): 0
- Number of mice demonstrating full tumor regression at Week 10 following first dose ([1]; 1 mg/kg IV once on Day 0): 0
- Number of mice demonstrating full tumor regression at Week 11 following first dose ([1]; 1 mg/kg IV once on Day 0): 0
- Number of mice demonstrating full tumor regression at Week 12 following first dose ([1]; 1 mg/kg IV once on Day 0): 0 (n = 4)
- % TGI Day 70 [1, 4]: 87.61%
- % of mice with tumor regression at the end of the study [1, 4]: 100%
- Tumor Volume (mm^3, Mean ± SEM) Day 70 [1, 4]: 168.94 mm^3 and 168.94 ± 168.94*** mm^3
- Tumor Weight (g, Mean ± SEM) Day 84 [1, 4]: 0.000 ± 0.000 g
- Tumor Weight (g, Mean ± SEM) Day 77 [1, 4]: 0.749 g
- Number of mice demonstrating full tumor regression at Week 4 following first dose [1, 4]: 5
- Number of mice demonstrating full tumor regression at Week 5 following first dose [1, 4]: 5
- Number of mice demonstrating full tumor regression at Week 6 following first dose [1, 4]: 5
- Number of mice demonstrating full tumor regression at Week 7 following first dose [1, 4]: 5
- Number of mice demonstrating full tumor regression at Week 8 following first dose [1, 4]: 5
- Number of mice demonstrating full tumor regression at Week 9 following first dose [1, 4]: 5
- Number of mice demonstrating full tumor regression at Week 10 following first dose [1, 4]: 5
- Number of mice demonstrating full tumor regression at Week 11 following first dose [1, 4]: 5/6 and 5
- Number of mice demonstrating full tumor regression at Week 12 following first dose [1, 4]: 5 (n = 5)
- % TGI Day 70 ([1]; 2 mg/kg IV once on Day 0): 89.74%
- % of mice with tumor regression at the end of the study ([1]; 2 mg/kg IV once on Day 0): 20%
- Tumor Volume (mm^3, Mean ± SEM) Day 70 ([1]; 2 mg/kg IV once on Day 0): 139.85 mm^3 and 139.85 ± 99.80*** mm^3
- Tumor Weight (g, Mean ± SEM) Day 84 ([1]; 2 mg/kg IV once on Day 0): 0.089 ± 0.048 g
- Tumor Weight (g, Mean ± SEM) Day 77 ([1]; 2 mg/kg IV once on Day 0): 1.004 g
- Number of mice demonstrating full tumor regression at Week 4 following first dose ([1]; 2 mg/kg IV once on Day 0): 2
- Number of mice demonstrating full tumor regression at Week 5 following first dose ([1]; 2 mg/kg IV once on Day 0): 2
- Number of mice demonstrating full tumor regression at Week 6 following first dose ([1]; 2 mg/kg IV once on Day 0): 2
- Number of mice demonstrating full tumor regression at Week 7 following first dose ([1]; 2 mg/kg IV once on Day 0): 2
- Number of mice demonstrating full tumor regression at Week 8 following first dose ([1]; 2 mg/kg IV once on Day 0): 2
- Number of mice demonstrating full tumor regression at Week 9 following first dose ([1]; 2 mg/kg IV once on Day 0): 2
- Number of mice demonstrating full tumor regression at Week 10 following first dose ([1]; 2 mg/kg IV once on Day 0): 2
- Number of mice demonstrating full tumor regression at Week 11 following first dose ([1]; 2 mg/kg IV once on Day 0): 2/6 and 2
- Number of mice demonstrating full tumor regression at Week 12 following first dose ([1]; 2 mg/kg IV once on Day 0): 1 (n = 5)
- % of mice with tumor regression at the end of the study ([1]; 4 mg/kg IV as a single dose on Day 0): 66%
- % TGI Day 70 ([1]; 4 mg/kg IV once on Day 0): 78.49%
- Tumor Volume (mm^3, Mean ± SEM) Day 70 ([1]; 4 mg/kg IV once on Day 0): 293.26 mm^3 and 293.26 ± 288.40** mm^3
- Tumor Weight (g, Mean ± SEM) Day 84 ([1]; 4 mg/kg IV once on Day 0): 0.346 ± 0.341 g
- Number of mice demonstrating full tumor regression at Week 4 following first dose ([1]; 4 mg/kg IV once on Day 0): 4
- Number of mice demonstrating full tumor regression at Week 5 following first dose ([1]; 4 mg/kg IV once on Day 0): 4
- Number of mice demonstrating full tumor regression at Week 6 following first dose ([1]; 4 mg/kg IV once on Day 0): 4
- Number of mice demonstrating full tumor regression at Week 7 following first dose ([1]; 4 mg/kg IV once on Day 0): 4
- Number of mice demonstrating full tumor regression at Week 8 following first dose ([1]; 4 mg/kg IV once on Day 0): 4
- Number of mice demonstrating full tumor regression at Week 9 following first dose ([1]; 4 mg/kg IV once on Day 0): 4
- Number of mice demonstrating full tumor regression at Week 10 following first dose ([1]; 4 mg/kg IV once on Day 0): 4
- Number of mice demonstrating full tumor regression at Week 11 following first dose ([1]; 4 mg/kg IV once on Day 0): 4/6 and 4
- Number of mice demonstrating full tumor regression at Week 12 following first dose ([1]; 4 mg/kg IV once on Day 0): 4
- TGI on Day 70, excluding the outlier [1, 5]: 99.64%
- average tumor size on Day 70, excluding the outlier [1, 5]: 4.89 mm^3
- side effects based on changes in body weight, survival and gross observations [2]: No obvious side effects
- Tumor Size (mm^3) at Day 42, mean ± SEM ([3]; 1 mg/kg intravenous): 620 ± 61 mm^3
- Tumor Size (mm^3) at Day 42, mean ± SEM ([3]; 4 mg/kg intravenous): 4 ± 2 mm^3
- average tumor volume on Day 56 ([3]; 4 mg/kg intravenous): 3 mm^3
- T/C (%) ([3]; 1 mg/kg intravenous): 82%
- TGI (%) ([3]; 1 mg/kg intravenous): 18%
- T/C (%) ([3]; 4 mg/kg intravenous): 0%
- TGI (%) ([3]; 4 mg/kg intravenous): 100%
